To fix the notation:
B1: CPEB3 Ribozyme (parent)
chain: GGGGGCCACAGCAGAAGCGUUCACGUCGCGGCCCCUGUCAGAUUCUGGUGAAUCUGCGAAUUCUGCUGU

In this data set the parent is B1. The data set is described as follows: self-cleavage, relative activity (ratio to wild type); higher = more cleavage; co-transcriptional.
With G30C C39U, the self-cleavage was 0.396.

Turning to G30C C39A, the self-cleavage came to 0.218.

As to C29U G68U, the self-cleavage is 0.515.

Take C29U G68A: the self-cleavage came to 0.586.

As for C29U A42U, the self-cleavage came to 0.262.

As for G30U A51G, the self-cleavage was determined as 0.4.

On to G30U A51U, for which the self-cleavage came out at 0.345.

As for G30U A51C, the self-cleavage was found to be 0.306.

For C29U G31A, the self-cleavage stood at 0.315.

In the case of C29U G31U, the self-cleavage was 0.221.

In the case of G30A U55C, the self-cleavage was 0.519.

As to G30A U55G, the self-cleavage came to 0.453.

Regarding G30A U67A, the self-cleavage was 0.901.

Regarding G30A U67G, the self-cleavage turned out to be 0.948.

With G30C U43C, the self-cleavage turned out to be 0.587.

Take G30C U43G: the self-cleavage amounted to 0.369.

Regarding G30C U55A, the self-cleavage came out at 0.466.

G30C U55G: the self-cleavage came to 0.323.

Regarding G30C U55C, the self-cleavage was 0.388.

As for C29U A60U, the self-cleavage was 0.23.

For C29U A60G, the self-cleavage came out at 0.345.

With G30U C39G, the self-cleavage amounted to 0.29.

G30U C39U: the self-cleavage amounted to 0.252.

Take G30U C39A: the self-cleavage was found to be 0.273.

Turning to G30U G31A, the self-cleavage was determined as 0.196.

On to G30U G31C, for which the self-cleavage stood at 0.149.

In the case of G30U U36G, the self-cleavage is 0.175.

For G30U U36A, the self-cleavage was found to be 0.198.

In the case of G30U U36C, the self-cleavage amounted to 0.179.

With G30A G47C, the self-cleavage came out at 0.93.

Consider C29U U61G, for which the self-cleavage came to 0.218.

With C29U U61A, the self-cleavage worked out at 0.244.

Consider G30A C35A, for which the self-cleavage came out at 0.207.

For G30U A42U, the self-cleavage came to 0.247.

With G30U A42C, the self-cleavage was 0.282.

C29G G65C: the self-cleavage was 0.232.

In the case of C29G G65U, the self-cleavage was 0.182.

As for C29G G65A, the self-cleavage was determined as 0.286.

On to C29U C63U, for which the self-cleavage is 0.253.

In the case of G30U U43A, the self-cleavage amounted to 0.311.

Take G30U U43C: the self-cleavage amounted to 0.38.

For the variant G30U U43G, the self-cleavage was 0.281.

For G30U C33U, the self-cleavage was 0.295.

As to G30U C33G, the self-cleavage came to 0.192.

Take G30U C33A: the self-cleavage came out at 0.233.

Consider C29U U46A, for which the self-cleavage worked out at 0.699.

In the case of C29U A59C, the self-cleavage is 0.237.

As for C29U A59G, the self-cleavage came to 0.58.

Turning to C29U G30U, the self-cleavage was 0.169.

In the case of C29U G30C, the self-cleavage was determined as 0.232.

Turning to G30C C35G, the self-cleavage is 0.15.

Turning to C29U C57G, the self-cleavage came to 0.177.

C29U C57U: the self-cleavage turned out to be 0.227.

Consider C29U C57A, for which the self-cleavage came out at 0.154.

C29U G50U: the self-cleavage amounted to 0.517.

For C29U G50C, the self-cleavage was 0.321.

With C29U G50A, the self-cleavage is 0.524.

In the case of G30C A52U, the self-cleavage stood at 0.556.

As to G30C A52C, the self-cleavage was 0.506.

As to G30C A52G, the self-cleavage stood at 0.724.

As to G30C C34A, the self-cleavage came out at 0.243.

As for G30C C34U, the self-cleavage was 0.6.

Consider G30C G56A, for which the self-cleavage turned out to be 0.464.

Regarding C29G G56C, the self-cleavage was 0.225.

C29G G56A: the self-cleavage is 0.299.

Consider C29G G56U, for which the self-cleavage worked out at 0.292.

For the variant C29U C33G, the self-cleavage was determined as 0.226.

As for C29U C33A, the self-cleavage worked out at 0.355.

In the case of G30U G41A, the self-cleavage was determined as 0.216.

Turning to G30U G41U, the self-cleavage was 0.229.

As to G30C U61G, the self-cleavage amounted to 0.304.

For the variant G30A A51U, the self-cleavage stood at 0.752.

For the variant G30A A51G, the self-cleavage turned out to be 0.744.

Consider C29G U61A, for which the self-cleavage amounted to 0.57.

As for C29U U55A, the self-cleavage was found to be 0.173.

C29U U55C: the self-cleavage came out at 0.199.

C29U U55G: the self-cleavage was determined as 0.167.

Regarding G30C U53C, the self-cleavage came out at 0.44.

Consider G30C U53G, for which the self-cleavage was 0.46.

Consider G30A U69A, for which the self-cleavage is 1.

Turning to G30A U69C, the self-cleavage was 1.04.

Consider C29U C39A, for which the self-cleavage came to 0.16.

C29U C39U: the self-cleavage worked out at 0.193.

For G30A G56A, the self-cleavage worked out at 0.713.

For the variant G30A G56U, the self-cleavage stood at 0.693.

Turning to G30A G56C, the self-cleavage was 0.413.

Take G30U G68C: the self-cleavage is 0.825.

As for C29U U38C, the self-cleavage was determined as 0.189.

Take C29U U38G: the self-cleavage turned out to be 0.238.

As to C29U U64C, the self-cleavage was determined as 0.371.

With C29U G58U, the self-cleavage worked out at 0.641.

For C29U G58A, the self-cleavage was 0.372.

For the variant G30A G48C, the self-cleavage was 0.901.

Regarding G30A G48U, the self-cleavage came out at 0.868.

For G30C A59U, the self-cleavage is 0.295.

As to G30C A59G, the self-cleavage was 0.708.

Regarding G30C A59C, the self-cleavage is 0.306.

For the variant G30C C33U, the self-cleavage amounted to 0.576.

As to C29G U55C, the self-cleavage worked out at 0.253.

In the case of C29G U55G, the self-cleavage was determined as 0.171.

As for C29G U55A, the self-cleavage stood at 0.267.

As for G30U U55G, the self-cleavage came out at 0.232.

As to G30U U55C, the self-cleavage came out at 0.287.

Take G30U U55A: the self-cleavage was found to be 0.304.

For G30C U67A, the self-cleavage is 0.869.

Turning to C29U G65U, the self-cleavage came to 0.167.

With C29U G65A, the self-cleavage came to 0.19.

C29U G65C: the self-cleavage is 0.272.

As to C29G U69C, the self-cleavage amounted to 0.892.

Consider C29G U69A, for which the self-cleavage was found to be 0.757.

With G30C C45A, the self-cleavage amounted to 0.51.

In the case of G30C C45U, the self-cleavage was 0.603.

In the case of G30A U43A, the self-cleavage is 0.579.

On to G30A U43G, for which the self-cleavage came out at 0.464.

Turning to G30A U43C, the self-cleavage came to 0.704.

Take G30U G56A: the self-cleavage was 0.218.

With G30U G56C, the self-cleavage was 0.196.

For C29U C54G, the self-cleavage was 0.219.

Regarding C29U C54U, the self-cleavage was determined as 0.448.

G30A U46C: the self-cleavage was 0.866.

In the case of G30A U46A, the self-cleavage was 0.723.

Consider G30C G31C, for which the self-cleavage came to 0.136.

Consider G30C G31A, for which the self-cleavage came to 0.252.

Turning to G30A A40U, the self-cleavage came to 0.461.

In the case of G30A A40G, the self-cleavage was determined as 0.754.

As to G30A A40C, the self-cleavage was determined as 0.276.

As to C29U U49A, the self-cleavage was 0.542.

In the case of C29U U49G, the self-cleavage came to 0.514.

As to C29U U49C, the self-cleavage is 0.411.

Regarding G30A C54U, the self-cleavage worked out at 0.876.

G30A C54A: the self-cleavage stood at 0.431.

As for G30U C35A, the self-cleavage was found to be 0.191.

With G30U C35G, the self-cleavage stood at 0.213.

As for G30U C63G, the self-cleavage came to 0.261.

Turning to G30U C63A, the self-cleavage came to 0.181.

As to G30C A40C, the self-cleavage is 0.197.

As for G30C A40G, the self-cleavage was 0.462.

On to G30C A51G, for which the self-cleavage was 0.628.

G30C A51C: the self-cleavage came out at 0.614.

Take C29U G47A: the self-cleavage was determined as 0.598.

As to C29U G47C, the self-cleavage worked out at 0.62.

For the variant G30A U36A, the self-cleavage is 0.196.

G30A C45G: the self-cleavage worked out at 0.73.

With G30A C45U, the self-cleavage was 0.884.

Take G30U A40G: the self-cleavage was determined as 0.341.

In the case of C29G U43G, the self-cleavage turned out to be 0.393.

As to G30A A42G, the self-cleavage came out at 0.817.

For the variant C29U C45U, the self-cleavage was 0.505.

C29U C45A: the self-cleavage was determined as 0.307.

For the variant C29U C45G, the self-cleavage is 0.404.

For the variant G30A C34U, the self-cleavage worked out at 0.741.

Consider G30U C57U, for which the self-cleavage worked out at 0.207.

G30U C57A: the self-cleavage was found to be 0.235.

As to C29G U44A, the self-cleavage came to 0.338.

As for C29G U44C, the self-cleavage worked out at 0.314.

For the variant G30U U38C, the self-cleavage stood at 0.253.

As to G30U U38G, the self-cleavage turned out to be 0.153.

As for G30U U38A, the self-cleavage turned out to be 0.201.

For C29U U69A, the self-cleavage came to 0.619.

Consider C29U U69C, for which the self-cleavage turned out to be 0.834.

In the case of C29U U69G, the self-cleavage was found to be 0.737.

As to G30C G65C, the self-cleavage came to 0.431.

On to G30A G65C, for which the self-cleavage is 0.353.

As for G30A G65A, the self-cleavage was 0.627.

In the case of G30A C66U, the self-cleavage stood at 0.861.

On to G30A C66G, for which the self-cleavage turned out to be 0.61.

With G30U A52G, the self-cleavage turned out to be 0.287.

These data come from the RNAGym collection of RNA variant scans (doi:10.7554/elife.80360).
